Results taken from paper PMC8934651, “Yeast Ssd1 is a non-enzymatic member of the RNase II family with an alternative RNA recognition site”.

How the values were obtained:
Ssd1 ΔN338 [1] = target: T1, Ssd1 ΔN338 (Saccharomyces cerevisiae (S288C/BY4741 …, UniProt P24276 339-1250)); test: fluorescence anisotropy; Anisotropy: 20 nM RNA, 20 mM HEPES pH 7.5, 150 mM NaCl, 1 mM DTT, 0.01% Tween 20, 15 and 30 min on ice; EMSA: 0.5 uM RNA, 20 mM HEPES pH 7.5, 150 mM K acetate; details: protein: recombinant, tags: His tag cleaved with 3C protease
T1 sequence: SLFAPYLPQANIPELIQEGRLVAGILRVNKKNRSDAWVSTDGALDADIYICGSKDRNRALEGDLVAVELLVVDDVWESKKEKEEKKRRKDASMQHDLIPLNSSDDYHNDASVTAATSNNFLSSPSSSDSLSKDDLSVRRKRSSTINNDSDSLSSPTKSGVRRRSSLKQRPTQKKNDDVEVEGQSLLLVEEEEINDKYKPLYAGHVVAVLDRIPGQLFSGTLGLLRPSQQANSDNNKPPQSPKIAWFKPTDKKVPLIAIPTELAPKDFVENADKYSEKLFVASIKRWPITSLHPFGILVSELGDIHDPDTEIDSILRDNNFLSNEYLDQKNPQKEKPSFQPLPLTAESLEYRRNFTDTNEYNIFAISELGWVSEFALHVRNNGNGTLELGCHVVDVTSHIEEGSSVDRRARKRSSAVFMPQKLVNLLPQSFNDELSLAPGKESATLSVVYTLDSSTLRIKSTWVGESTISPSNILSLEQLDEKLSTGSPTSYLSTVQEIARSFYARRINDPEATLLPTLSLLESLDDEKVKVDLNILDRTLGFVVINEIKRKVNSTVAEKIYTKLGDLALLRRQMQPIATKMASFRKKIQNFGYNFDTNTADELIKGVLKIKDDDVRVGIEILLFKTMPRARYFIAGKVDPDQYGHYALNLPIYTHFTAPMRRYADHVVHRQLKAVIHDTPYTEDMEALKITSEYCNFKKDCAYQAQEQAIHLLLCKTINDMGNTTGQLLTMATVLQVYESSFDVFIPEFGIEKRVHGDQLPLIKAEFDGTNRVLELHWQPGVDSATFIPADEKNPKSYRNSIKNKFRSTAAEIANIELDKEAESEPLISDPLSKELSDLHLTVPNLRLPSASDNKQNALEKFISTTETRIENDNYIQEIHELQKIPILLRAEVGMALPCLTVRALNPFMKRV

Ssd1 ΔN338 [2] = target: T1, Ssd1 ΔN338; test: as above; details: protein: recombinant; tags: His tag cleaved with 3C protease; label: 5'-Cy3
Ssd1 ΔN338 [3] = target: T1, Ssd1 ΔN338; test: EMSA; 5 mM Mg acetate; no significant binding; Anisotropy: 20 nM RNA, 20 mM HEPES pH 7.5, 150 mM NaCl, 1 mM DTT, 0.01% Tween 20, 15 and 30 min on ice; EMSA: 0.5 uM RNA, 20 mM HEPES pH 7.5, 150 mM K acetate; details: protein: recombinant; tags: His tag cleaved with 3C protease; label: 5'-DY681

B1: DUO-21mer (ssRNA)
RNA: CAACUAAUUUUCACUCCUUUAA
Ssd1 ΔN338 [1]; label: 5'-Cy3
  Kd: 36 nM

B2: SUN4-DUO_Mut3 (ssRNA)
RNA: CUUCCGGCUAAUUUUUAUCCCUCUAA
Ssd1 ΔN338 [2]
  binding signal: ~10 fold further loss of affinity (vs Mut2)

B3: DUO-17mer (ssRNA)
RNA: UAAUUUUCACUCCUUUAA
Ssd1 ΔN338 [1]; label: 5'-Cy3
  Kd: 124 nM

B4: SEE-15mer (ssRNA)
RNA: AUUUUCACUCCUUUAA
Ssd1 ΔN338 [1]; label: 5'-DY681 (EMSA), 5'-Cy3 (anisotropy)
  Kd: 166 nM

B5: DUO-19mer (ssRNA)
RNA: ACUAAUUUUCACUCCUUUAA
Ssd1 ΔN338 [1]; label: 5'-Cy3
  Kd: 42 nM

B6: CCACCU-16mer (CCAACU motif) (ssRNA)
RNA: AGAACUCUUCCAACUA
Ssd1 ΔN338 [3]
  binding result: no binding

B7: SUN4-DUO_Mut2 (ssRNA)
RNA: CUUCCAACUAAUUUUUAUCCCUCUAA
Ssd1 ΔN338 [1]; label: 5'-Cy3
  Kd: 104 nM

B8: DUO-25mer (ssRNA)
RNA: CUUCCAACUAAUUUUCACUCCUUUAA
Ssd1 ΔN338 [1]; label: 5'-Cy3 (anisotropy)
  Kd: 8 nM

B9: SUN4-DUO_Mut1 (ssRNA)
RNA: CUUCCGGCUAAUUUUCACUCCUUUAA
Ssd1 ΔN338 [2]
  binding signal: ~2 fold reduction in affinity vs DUO-25mer
